Assay results taken from patent publication US20140044713A1 (KONINKLIJKE NEDERLANDSE AKADEMIE VAN WETENSCHAPPEN, published 2014).

B1: FBXO3 (other, not shown: small tags and cut ends)
chain: MAAMETETAPLTLESLPTDPLLLILSFLDYRDLINCCYVSRRLSQLSSHDPLWRRHCKKYWLISEEEKTQKNQCWKSLFIDTYSDVGRYIDHYAAIKKAWDDLKKYLEPRCPRMVLSLKEGAREEDLDAVEAQIGCKLPDDYRCSYRIHNGQKLVVPGLLGSMALSNHYRSEDLLDVDTAAGGFQQRQGLKYCLPLTFCIHTGLSQYIAVEAAEGRNKNEVFYQCPDQMARNPAAIDMFIIGATFTDWFTSYVKNVVSGGFPIIRDQIFRYVHDPECVATTGDITVSVSTSFLPELSSVHPPHYFFTYRIRIEMSKDALPEKACQLDSRYWRITNAKGDVEEVQGPGVVGEFPIISPGRVYEYTSCTTFSTTSGYMEGYYTFHFLYFKDKIFNVAIPRFHMACPTFRVSIARLEMGPDEYEEMEEEEEEEEEEDEDDDSADMDESDEDDEEERRRRVFDVPIRRRRCSRLF
notes: TAP-MS bait
B2: FBXO18 (other, not shown: small tags and cut ends)
chain: MRRFKRKHLTAIDCQHLARSHLAVTQPFGQRWTNRDPNHGLYPKPRTKRGSRGQGSQRCIPEFFLAGKQPCTNDMAKSNSVGQDSCQDSEGDMIFPAESSCALPQEGSAGPGSPGSAPPSRKRSWSSEEESNQATGTSRWDGVSKKAPRHHLSVPCTRPREARQEAEDSTSRLSAESGETDQDAGDVGPDPIPDSYYGLLGTLPCQEALSHICSLPSEVLRHVFAFLPVEDLYWNLSLVCHLWREIISDPLFIPWKKLYHRYLMNEEQAVSKVDGILSNCGIEKESDLCVLNLIRYTATTKCSPSVDPERVLWSLRDHPLLPEAEACVRQHLPDLYAAAGGVNIWALVAAVVLLSSSVNDIQRLLFCLRRPSSTVTMPDVTETLYCIAVLLYAMREKGINISNRIHYNIFYCLYLQENSCTQATKVKEEPSVWPGKKTIQLTHEQQLILNHKMEPLQVVKIMAFAGTGKTSTLVKYAEKWSQSRFLYVTFNKSIAKQAERVFPSNVICKTFHSMAYGHIGRKYQSKKKLNLFKLTPFMVNSVLAEGKGGFIRAKLVCKTLENFFASADEELTIDHVPIWCKNSQGQRVMVEQSEKLNGVLEASRLWDNMRKLGECTEEAHQMTHDGYLKLWQLSKPSLASFDAIFVDEAQDCTPAIMNIVLSQPCGKIFVGDPHQQIYTFRGAVNALFTVPHTHVFYLTQSFRFGVEIAYVGATILDVCKRVRKKTLVGGNHQSGIRGDAKGQVALLSRTNANVFDEAVRVTEGEFPSRIHLIGGIKSFGLDRIIDIWILLQPEEERRKQNLVIKDKFIRRWVHKEGFSGFKRYVTAAEDKELEAKIAVVEKYNIRIPELVQRIEKCHIEDLDFAEYILGTVHKAKGLEFDTVHVLDDFVKVPCARHNLPQLPHFRVESFSEDEWNLLYVAVTRAKKRLIMTKSLENILTLAGEYFLQAELTSNVLKTGVVRCCVGQCNNAIPVDTVLTMKKLPITYSNRKENKGGYLCHSCAEQRIGPLAFLTASPEQVRAMERTVENIVLPRHEALLFLVF
notes: TAP-MS bait
B3: FBXO31 (other, not shown: small tags and cut ends)
chain: MAVCARLCGVGPSRGCRRRQQRRGPAETAAADSEPDTDPEEERIEASAGVGGGLCAGPSPPPPRCSLLELPPELLVEIFASLPGTDLPSLAQVCTKFRRILHTDTIWRRRCREEYGVCENLRKLEITGVSCRDVYAKLLHRYRHILGLWQPDIGPYGGLLNVVVDGLFIIGWMYLPPHDPHVDDPMRFKPLFRIHLMERKAATVECMYGHKGPHHGHIQIVKKDEFSTKCNQTDHHRMSGGRQEEFRTWLREEWGRTLEDIFHEHMQELILMKFIYTSQYDNCLTYRRIYLPPSRPDDLIKPGLFKGTYGSHGLEIVMLSFHGRRARGTKITGDPNIPAGQQTVEIDLRHRIQLPDLENQRNFNELSRIVLEVRERVRQEQQEGGHEAGEGRGRQGPRESQPSPAQPRAEAPSKGPDGTPGEDGGEPGDAVAAAEQPAQCGQGQPFVLPVGVSSRNEDYPRTCRMCFYGTGLIAGHGFTSPERTPGVFILFDEDRFGFVWLELKSFSLYSRVQATFRNADAPSPQAFDEMLKNIQSLTS
notes: TAP-MS bait
B4: PER2 (other, not shown: small tags and cut ends)
chain: MNGYAEFPPSPSNPTKEPVEPQPSQVPLQEDVDMSSGSSGHETNENCSTGRDSQGSDCDDSGKELGMLVEPPDARQSPDTFSLMMAKSEHNPSTSGCSSDQSSKVDTHKELIKTLKELKVHLPADKKAKGKASTLATLKYALRSVKQVKANEEYYQLLMSSEGHPCGADVPSYTVEEMESVTSEHIVKNADMFAVAVSLVSGKILYISDQVASIFHCKRDAFSDAKFVEFLAPHDVGVFHSFTSPYKLPLWSMCSGADSFTQECMEEKSFFCRVSVRKSHENEIRYHPFRMTPYLVKVRDQQGAESQLCCLLLAERVHSGYEAPRIPPEKRIFTTTHTPNCLFQDVDERAVPLLGYLPQDLIETPVLVQLHPSDRPLMLAIHKKILQSGGQPFDYSPIRFRARNGEYITLDTSWSSFINPWSRKISFIIGRHKVRVGPLNEDVFAAHPCTEEKALHPSIQELTEQIHRLLLQPVPHSGSSGYGSLGSNGSHEHLMSQTSSSDSNGHEDSRRRRAEICKNGNKTKNRSHYSHESGEQKKKSVTEMQTNPPAEKKAVPAMEKDSLGVSFPEELACKNQPTCSYQQISCLDSVIRYLESCNEAATLKRKCEFPANVPALRSSDKRKATVSPGPHAGEAEPPSRVNSRTGVGTHLTSLALPGKAESVASLTSQCSYSSTIVHVGDKKPQPELEMVEDAASGPESLDCLAGPALACGLSQEKEPFKKLGLTKEVLAAHTQKEEQSFLQKFKEIRKLSIFQSHCHYYLQERSKGQPSERTAPGLRNTSGIDSPWKKTGKNRKLKSKRVKPRDSSESTGSGGPVSARPPLVGLNATAWSPSDTSQSSCPAVPFPAPVPAAYSLPVFPAPGTVAAPPAPPHASFTVPAVPVDLQHQFAVQPPPFPAPLAPVMAFMLPSYSFPSGTPNLPQAFFPSQPQFPSHPTLTSEMASASQPEFPSRTSIPRQPCACPATRATPPSAMGRASPPLFQSRSSSPLQLNLLQLEEAPEGGTGAMGTTGATETAAVGADCKPGTSRDQQPKAPLTRDEPSDTQNSDALSTSSGLLNLLLNEDLCSASGSAASESLGSGSLGCDASPSGAGSSDTSHTSKYFGSIDSSENNHKAKMNTGMEESEHFIKCVLQDPIWLLMADADSSVMMTYQLPSRNLEAVLKEDREKLKLLQKLQPRFTESQKQELREVHQWMQTGGLPAAIDVAECVYCENKEKGNICIPYEEDIPSLGLSEVSDTKEDENGSPLNHRIEEQT
notes: TAP-MS bait
B5: RNF43 (other, not shown: small tags and cut ends)
chain: GFGRTGLVLAAAVESERSAEQKAIIRVIPLKMDPTGKLNLTLEGVFAGVAEITPAEGKLMQSHPLYLCNASDDDNLEPGFISIVKLESPRRAPRPCLSLASKARMAGERGASAVLFDITEDRAAAEQLQQPLGLTWPVVLIWGNDAEKLMEFVYKNQKAHVRIELKEPPAWPDYDVWILMTVVGTIFVIILASVLRIRCRPRHSRPDPLQQRTAWAISQLATRRYQASCRQARGEWPDSGSSCSSAPVCAICLEEFSEGQELRVISCLHEFHRNCVDPWLHQHRTCPLCMFNITEGDSFSQSLGPSRSYQEPGRRLHLIRQHPGHAHYHLPAAYLLGPSRSAVARPPRPGPFLPSQEPGMGPRHHRFPRAAHPRAPGEQQRLAGAQHPYAQGWGLSHLQSTSQHPAACPVPLRRARPPDSSGSGESYCTERSGYLADGPASDSSSGPCHGSSSDSVVNCTDISLQGVHGSSSTFCSSLSSDFDPLVYCSPKGDPQRVDMQPSVTSRPRSLDSVVPTGETQVSSHVHYHRHRHHHYKKRFQWHGRKPGPETGVPQSRPPIPRTQPQPEPPSPDQQVTRSNSAAPSGRLSNPQCPRALPEPAPGPVDASSICPSTSSLFNLQKSSLSARHPQRKRRGGPSEPTPGSRPQDATVHPACQIFPHYTPSVAYPWSPEAHPLICGPPGLDKRLLPETPGPCYSNSQPVWLCLTPRQPLEPHPPGEGPSEWSSDTAEGRPCPYPHCQVLSAQPGSEEELEELCEQAV
notes: TAP-MS bait
B6: USP47 (enzyme, not shown: small tags and cut ends)
chain: MVPGEENQLVPKEDVFWRCRQNIFDEMKKKFLQIENAAEEPRVLCIIQDTTNSKTVNERITLNLPASTPVRKLFEDVANKVGYINGTFDLVWGNGINTADMAPLDHTSDKSLLDANFEPGKKNFLHLTDKDGEQPQILLEDSSAGEDSVHDRFIGPLPREGSGGSTSDYVSQSYSYSSILNKSETGYVGLVNQAMTCYLNSLLQTLFMTPEFRNALYKWEFEESEEDPVTSIPYQLQRLFVLLQTSKKRAIETTDVTRSFGWDSSEAWQQHDVQELCRVMFDALEQKWKQTEQADLINELYQGKLKDYVRCLECGYEGWRIDTYLDIPLVIRPYGSSQAFASVEEALHAFIQPEILDGPNQYFCERCKKKCDARKGLRFLHFPYLLTLQLKRFDFDYTTMHRIKLNDRMTFPEELDMSTFIDVEDEKSPQTESCTDSGAENEGSCHSDQMSNDFSNDDGVDEGICLETNSGTEKISKSGLEKNSLIYELFSVMVHSGSAAGGHYYACIKSFSDEQWYSFNDQHVSRITQEDIKKTHGGSSGSRGYYSSAFASSTNAYMLIYRLKDPARNAKFLEVDEYPEHIKNLVQKERELEEQEKRQREIERNTCKIKLFCLHPTKQVMMENKLEVHKDKTLKEAVEMAYKMMDLEEVIPLDCCRLVKYDEFHDYLERSYEGEEDTPMGLLLGGVKSTYMFDLLLETRKPDQVFQSYKPGEVMVKVHVVDLKAESVAAPITVRAYLNQTVTEFKQLISKAIHLPAETMRIVLERCYNDLRLLSVSSKTLKAEGFFRSNKVFVESSETLDYQMAFADSHLWKLLDRHANTIRLFVLLPEQSPVSYSKRTAYQKAGGDSGNVDDDCERVKGPVGSLKSVEAILEESTEKLKSLSLQQQQDGDNGDSSKSTETSDFENIESPLNERDSSASVDNRELEQHIQTSDPENFQSEERSDSDVNNDRSTSSVDSDILSSSHSSDTLCNADNAQIPLANGLDSHSITSSRRTKANEGKKETWDTAEEDSGTDSEYDESGKSRGEMQYMYFKAEPYAADEGSGEGHKWLMVHVDKRITLAAFKQHLEPFVGVLSSHFKVFRVYASNQEFESVRLNETLSSFSDDNKITIRLGRALKKGEYRVKVYQLLVNEQEPCKFLLDAVFAKGMTVRQSKEELIPQLREQCGLELSIDRFRLRKKTWKNPGTVFLDYHIYEEDINISSNWEVFLEVLDGVEKMKSMSQLAVLSRRWKPSEMKLDPFQEVVLESSSVDELREKLSEISGIPLDDIEFAKGRGTFPCDISVLDIHQDLDWNPKVSTLNVWPLYICDDGAVIFYRDKTEELMELTDEQRNELMKKESSRLQKTGHRVTYSPRKEKALKIYLDGAPNKDLTQD
notes: TAP-MS bait

Legend:
Experiment in all cases: TAP + mass spectrometry, HEK293 cells
[1] = target: T1, LRP5 (endogenous) (human, UniProt O75197 32-1615)
T1 construct: whole, on cells

[2] = target: T2, LRP6 (endogenous) (human, UniProt O75581 20-1613)
T2 construct: whole, on cells

[3] = target: T3, Lgr4 (endogenous, or expression construct whose tag is not stated) (human, UniProt Q9BXB1 25-951)
T3 construct: whole, on cells; Endogenous protein of HEK293T / LS174T cells in TAP-MS; also called endogenous Lgr4

T1 sequence (O75197 32-1615): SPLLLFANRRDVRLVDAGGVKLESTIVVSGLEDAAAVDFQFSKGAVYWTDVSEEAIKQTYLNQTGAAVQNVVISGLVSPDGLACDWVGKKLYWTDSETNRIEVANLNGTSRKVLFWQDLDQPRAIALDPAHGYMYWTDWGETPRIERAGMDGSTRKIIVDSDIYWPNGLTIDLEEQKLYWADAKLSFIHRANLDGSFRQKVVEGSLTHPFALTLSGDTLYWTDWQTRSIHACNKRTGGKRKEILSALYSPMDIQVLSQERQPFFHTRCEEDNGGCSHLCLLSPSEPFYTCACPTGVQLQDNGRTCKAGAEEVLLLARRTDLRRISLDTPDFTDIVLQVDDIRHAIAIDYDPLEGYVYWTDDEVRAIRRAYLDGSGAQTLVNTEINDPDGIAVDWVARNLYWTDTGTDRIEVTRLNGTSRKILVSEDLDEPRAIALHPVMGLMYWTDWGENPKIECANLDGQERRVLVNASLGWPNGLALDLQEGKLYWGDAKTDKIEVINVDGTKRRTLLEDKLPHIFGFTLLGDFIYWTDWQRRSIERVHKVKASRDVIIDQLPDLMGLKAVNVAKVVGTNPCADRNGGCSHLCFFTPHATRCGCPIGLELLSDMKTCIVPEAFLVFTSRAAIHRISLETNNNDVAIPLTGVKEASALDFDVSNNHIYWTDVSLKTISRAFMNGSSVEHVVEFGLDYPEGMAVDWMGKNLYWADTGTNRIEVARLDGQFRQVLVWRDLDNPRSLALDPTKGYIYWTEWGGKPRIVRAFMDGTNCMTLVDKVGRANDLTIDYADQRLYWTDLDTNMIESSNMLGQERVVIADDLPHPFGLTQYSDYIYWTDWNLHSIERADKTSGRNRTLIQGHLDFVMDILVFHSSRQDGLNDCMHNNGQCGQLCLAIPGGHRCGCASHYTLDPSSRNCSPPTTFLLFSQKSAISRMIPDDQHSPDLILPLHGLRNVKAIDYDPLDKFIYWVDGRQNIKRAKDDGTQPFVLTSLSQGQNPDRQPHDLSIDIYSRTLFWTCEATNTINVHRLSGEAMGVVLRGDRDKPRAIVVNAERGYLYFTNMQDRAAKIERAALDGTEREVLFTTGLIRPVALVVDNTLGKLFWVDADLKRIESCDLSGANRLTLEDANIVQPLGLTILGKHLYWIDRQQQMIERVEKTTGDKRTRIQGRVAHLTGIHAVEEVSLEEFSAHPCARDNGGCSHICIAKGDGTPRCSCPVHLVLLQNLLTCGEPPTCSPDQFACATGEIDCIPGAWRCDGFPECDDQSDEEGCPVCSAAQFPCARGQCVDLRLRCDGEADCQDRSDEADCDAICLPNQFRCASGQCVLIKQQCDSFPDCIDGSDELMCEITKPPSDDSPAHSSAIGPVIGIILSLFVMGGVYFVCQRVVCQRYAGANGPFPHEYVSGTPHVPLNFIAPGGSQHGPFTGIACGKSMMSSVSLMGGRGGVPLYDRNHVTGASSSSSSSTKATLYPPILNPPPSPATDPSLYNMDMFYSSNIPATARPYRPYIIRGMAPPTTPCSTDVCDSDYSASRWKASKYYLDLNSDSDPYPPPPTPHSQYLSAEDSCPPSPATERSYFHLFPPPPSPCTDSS
T2 sequence (O75581 20-1613): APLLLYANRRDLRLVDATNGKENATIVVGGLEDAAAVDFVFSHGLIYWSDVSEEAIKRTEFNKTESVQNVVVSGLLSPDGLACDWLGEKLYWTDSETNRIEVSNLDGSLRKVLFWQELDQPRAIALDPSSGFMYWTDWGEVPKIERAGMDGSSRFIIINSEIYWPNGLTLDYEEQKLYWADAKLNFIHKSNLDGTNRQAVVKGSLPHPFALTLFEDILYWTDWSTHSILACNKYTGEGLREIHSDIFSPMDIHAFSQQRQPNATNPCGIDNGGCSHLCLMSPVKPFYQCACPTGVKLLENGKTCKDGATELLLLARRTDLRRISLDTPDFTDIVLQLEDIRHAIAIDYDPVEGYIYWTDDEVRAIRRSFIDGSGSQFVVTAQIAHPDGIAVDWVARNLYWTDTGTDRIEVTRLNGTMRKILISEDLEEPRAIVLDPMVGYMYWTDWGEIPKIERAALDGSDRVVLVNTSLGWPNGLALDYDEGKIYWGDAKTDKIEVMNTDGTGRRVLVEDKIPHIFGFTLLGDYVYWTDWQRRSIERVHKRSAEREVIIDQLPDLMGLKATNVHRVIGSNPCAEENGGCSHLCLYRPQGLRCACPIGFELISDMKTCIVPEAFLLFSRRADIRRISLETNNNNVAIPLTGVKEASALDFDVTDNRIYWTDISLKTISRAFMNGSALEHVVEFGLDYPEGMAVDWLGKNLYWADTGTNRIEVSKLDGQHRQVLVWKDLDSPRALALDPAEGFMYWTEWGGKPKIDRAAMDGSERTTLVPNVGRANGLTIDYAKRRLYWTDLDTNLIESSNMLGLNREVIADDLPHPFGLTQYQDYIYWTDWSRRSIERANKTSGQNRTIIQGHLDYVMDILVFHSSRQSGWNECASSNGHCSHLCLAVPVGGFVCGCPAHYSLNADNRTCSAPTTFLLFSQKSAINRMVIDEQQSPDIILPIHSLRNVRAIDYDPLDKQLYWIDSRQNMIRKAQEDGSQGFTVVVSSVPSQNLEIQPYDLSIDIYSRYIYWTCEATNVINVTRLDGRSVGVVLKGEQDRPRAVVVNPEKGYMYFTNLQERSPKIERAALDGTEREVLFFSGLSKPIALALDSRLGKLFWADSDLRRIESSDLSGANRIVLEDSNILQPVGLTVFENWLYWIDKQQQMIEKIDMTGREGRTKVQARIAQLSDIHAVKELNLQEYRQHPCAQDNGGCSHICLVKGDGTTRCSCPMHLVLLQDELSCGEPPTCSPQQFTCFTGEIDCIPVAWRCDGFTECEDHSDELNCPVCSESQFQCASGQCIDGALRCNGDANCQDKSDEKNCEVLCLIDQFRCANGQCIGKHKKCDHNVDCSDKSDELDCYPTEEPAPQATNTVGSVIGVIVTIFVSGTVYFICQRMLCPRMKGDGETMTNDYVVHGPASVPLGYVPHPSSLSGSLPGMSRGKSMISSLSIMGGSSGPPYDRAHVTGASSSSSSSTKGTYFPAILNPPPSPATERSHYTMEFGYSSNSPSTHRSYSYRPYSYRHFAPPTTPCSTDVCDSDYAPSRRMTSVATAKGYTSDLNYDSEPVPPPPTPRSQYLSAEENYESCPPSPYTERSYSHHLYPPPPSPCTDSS

| Binder | binding result [1] | binding result [2] | binding result [3] |
| --- | --- | --- | --- |
| B1 | no binding | no binding | no binding |
| B2 | no binding | no binding | – |
| B3 | no binding | no binding | no binding |
| B4 | no binding | no binding | – |
| B5 | no binding | – | – |
| B6 | no binding | no binding | – |
